Data from the supplement of paper PMC9732359.
± gives the uncertainty stated by the source.

Assay: protein stability index of a GFP-peptide fusion (yeast GPS) (PSI 1-4); higher = more stable; sorted into four equal gates, so the index is relative within each strain
Summary of the method: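 Tiled 17-residue peptides from yeast proteins were fused downstream of GFP on a plasmid that also expresses Cherry, and the pooled library was carried in yeast. Mid-log cultures grown in leucine-free medium were sorted into four equal gates by GFP/Cherry fluorescence ratio. Plasmids from each gate were PCR-amplified and Illumina-sequenced, and reads were assigned to strains by barcodes. Each peptide's protein stability index is the sum, over gates, of the gate's read frequency multiplied by its gate number.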

AGVLNGTLEYGTCFGGS [RET1]
protein stability index (doa10∆): 2.97 ± 0.051 | protein stability index (pdr5∆): 2.91 ± 0.057 | protein stability index (san1∆): 2.99 ± 0.051 | protein stability index (ubr1∆): 3.08 ± 0.043

YLDQHKRTRLESLKNLN [SMC3]
protein stability index (doa10∆): 2.11 ± 0.097 | protein stability index (pdr5∆): 2.23 ± 0.083 | protein stability index (san1∆): 1.7 ± 0.098 | protein stability index (ubr1∆): 2.58 ± 0.21

SLAILGMNLLSNLSQNV [SWI1]
protein stability index (doa10∆): 2.44 ± 0.055 | protein stability index (pdr5∆): 2.94 ± 0.058 | protein stability index (san1∆): 2.69 ± 0.052 | protein stability index (ubr1∆): 2.81 ± 0.046

ATRTLVASIQNDPSAEV [YCG1]
protein stability index (pdr5∆): 3.41 ± 0.16 | protein stability index (san1∆): 2.79 ± 0.27

DLESSSPELKADLRPLQ [RPS7B]
protein stability index (doa10∆): 2.89 ± 0.29 | protein stability index (pdr5∆): 2.97 ± 0.21 | protein stability index (ubr1∆): 3.27 ± 0.17

SHNVDELLEHIETIGHL [RPN5]
protein stability index (doa10∆): 2.51 ± 0.084 | protein stability index (pdr5∆): 2.24 ± 0.1 | protein stability index (san1∆): 2.14 ± 0.11 | protein stability index (ubr1∆): 1.53 ± 0.082

PSYSPTSPSYSPTSPSY [RPO21]
protein stability index (doa10∆): 2.65 ± 0.03 | protein stability index (pdr5∆): 2.884 ± 0.028 | protein stability index (san1∆): 2.859 ± 0.028 | protein stability index (ubr1∆): 2.815 ± 0.023

RAYRIIRAHQTELTHHL [QCR7]
protein stability index (doa10∆): 3.03 ± 0.11 | protein stability index (pdr5∆): 3.34 ± 0.081 | protein stability index (san1∆): 3.01 ± 0.07 | protein stability index (ubr1∆): 2.96 ± 0.064

IKGQCLATLLGHNDWVS [ASC1]
protein stability index (doa10∆): 1.37 ± 0.083 | protein stability index (pdr5∆): 1.69 ± 0.083 | protein stability index (san1∆): 1.72 ± 0.11 | protein stability index (ubr1∆): 1.65 ± 0.066

PRSDAQAIKEASYVNIP [RPS0A]
protein stability index (doa10∆): 2.88 ± 0.058 | protein stability index (pdr5∆): 2.76 ± 0.048 | protein stability index (san1∆): 2.71 ± 0.058 | protein stability index (ubr1∆): 2.47 ± 0.034

DGLEKAAFNGVTFKDKY [FAS2]
protein stability index (doa10∆): 1.94 ± 0.083 | protein stability index (pdr5∆): 1.57 ± 0.096 | protein stability index (san1∆): 1.85 ± 0.14 | protein stability index (ubr1∆): 2.09 ± 0.12

ADAVTKDLKLRREDEII [REC8]
protein stability index (doa10∆): 3.08 ± 0.11 | protein stability index (pdr5∆): 3.31 ± 0.1 | protein stability index (san1∆): 3.3 ± 0.065 | protein stability index (ubr1∆): 3.03 ± 0.062

IFTEKIYKSIFNVVDVG [YJL039C/NUP192]
protein stability index (doa10∆): 1.99 ± 0.07 | protein stability index (pdr5∆): 1.71 ± 0.072 | protein stability index (san1∆): 1.72 ± 0.14 | protein stability index (ubr1∆): 1.33 ± 0.065

TQAKRIFLQQFLQELLK [SWI1]
protein stability index (doa10∆): 2.62 ± 0.072 | protein stability index (pdr5∆): 2.42 ± 0.092 | protein stability index (san1∆): 2.43 ± 0.082 | protein stability index (ubr1∆): 2.1 ± 0.064

GVILMFAAILVLLVLPF [COB]
protein stability index (doa10∆): 2.69 ± 0.062 | protein stability index (pdr5∆): 1.34 ± 0.05 | protein stability index (san1∆): 1.25 ± 0.065 | protein stability index (ubr1∆): 1.14 ± 0.046

RWDKEEYQSLMSLKDKL [SMC1]
protein stability index (doa10∆): 3.29 ± 0.076 | protein stability index (pdr5∆): 3.31 ± 0.08 | protein stability index (san1∆): 3.2 ± 0.11 | protein stability index (ubr1∆): 3.09 ± 0.053

FDFIKDNETPSKKTSPK [YOR098C/NUP1]
protein stability index (doa10∆): 2.25 ± 0.051 | protein stability index (pdr5∆): 2.87 ± 0.043 | protein stability index (san1∆): 2.6 ± 0.063 | protein stability index (ubr1∆): 2.96 ± 0.038

CNALIHIKFSAGTEANA [SRB4]
protein stability index (doa10∆): 1.96 ± 0.05 | protein stability index (pdr5∆): 2.31 ± 0.039 | protein stability index (san1∆): 2.19 ± 0.054 | protein stability index (ubr1∆): 2.33 ± 0.034

LGQYVQAHTLYNSVRPF [PRE10]
protein stability index (doa10∆): 2.74 ± 0.1 | protein stability index (pdr5∆): 2.87 ± 0.099 | protein stability index (san1∆): 2.78 ± 0.11 | protein stability index (ubr1∆): 2.65 ± 0.053

VQGKNLLTNFHGMDFTT [RPS1A]
protein stability index (doa10∆): 3.42 ± 0.078 | protein stability index (pdr5∆): 3.42 ± 0.055 | protein stability index (san1∆): 3.22 ± 0.045 | protein stability index (ubr1∆): 3.23 ± 0.052

FPRDGKAPEAEQVLSAA [RPL13B]
protein stability index (doa10∆): 3.3 ± 0.093 | protein stability index (pdr5∆): 2.9 ± 0.086 | protein stability index (san1∆): 2.9 ± 0.069 | protein stability index (ubr1∆): 3 ± 0.045

SNKKETKKKRKPTEVND [ITC1]
protein stability index (doa10∆): 3.15 ± 0.078 | protein stability index (pdr5∆): 3.31 ± 0.074 | protein stability index (san1∆): 3.26 ± 0.07 | protein stability index (ubr1∆): 3.23 ± 0.062

GLQNVRKVRTKKWKKYW [SWP82]
protein stability index (doa10∆): 3.6 ± 0.2 | protein stability index (san1∆): 3.26 ± 0.25

SVSLLNSDIANLRTQVT [SMC1]
protein stability index (doa10∆): 3.04 ± 0.09 | protein stability index (pdr5∆): 3.08 ± 0.064 | protein stability index (san1∆): 3.13 ± 0.096 | protein stability index (ubr1∆): 2.56 ± 0.11

GLESLLNIGLGAVGLKD [YCS4]
protein stability index (doa10∆): 2.77 ± 0.1 | protein stability index (pdr5∆): 2.61 ± 0.15 | protein stability index (san1∆): 2.89 ± 0.13 | protein stability index (ubr1∆): 2.68 ± 0.065

GIRWELISRLCPNSTGA [RPT1]
protein stability index (doa10∆): 2.04 ± 0.047 | protein stability index (pdr5∆): 2.25 ± 0.05 | protein stability index (san1∆): 2.12 ± 0.076 | protein stability index (ubr1∆): 2.19 ± 0.038

LNLTGPKVPEDIYKSHL [RPN1]
protein stability index (doa10∆): 2.9 ± 0.15 | protein stability index (pdr5∆): 3.11 ± 0.11 | protein stability index (san1∆): 2.85 ± 0.1 | protein stability index (ubr1∆): 2.9 ± 0.26

SGTKSEVLTYVNYLISN [YJL039C/NUP192]
protein stability index (doa10∆): 2.52 ± 0.053 | protein stability index (pdr5∆): 2.5 ± 0.056 | protein stability index (san1∆): 2.54 ± 0.041 | protein stability index (ubr1∆): 2.58 ± 0.044

RSKSSHKNERRVLEIQT [SKI6]
protein stability index (doa10∆): 3.22 ± 0.097 | protein stability index (pdr5∆): 3.35 ± 0.087 | protein stability index (san1∆): 3.23 ± 0.084 | protein stability index (ubr1∆): 3.37 ± 0.061

PIMFQDFDDSTAQEINF [IRR1]
protein stability index (doa10∆): 2.81 ± 0.057 | protein stability index (pdr5∆): 2.92 ± 0.059 | protein stability index (san1∆): 2.52 ± 0.053 | protein stability index (ubr1∆): 2.88 ± 0.043

QQAQARLQQGRRLPMTM [SNF2]
protein stability index (doa10∆): 3.1 ± 0.065 | protein stability index (pdr5∆): 3.15 ± 0.055 | protein stability index (san1∆): 3.24 ± 0.035 | protein stability index (ubr1∆): 3.22 ± 0.048

AVEQLAGCKIDNVDDIG [YDL088C/ASM4]
protein stability index (doa10∆): 2.86 ± 0.075 | protein stability index (pdr5∆): 2.64 ± 0.071 | protein stability index (san1∆): 2.56 ± 0.08 | protein stability index (ubr1∆): 2.61 ± 0.047

VLQNVFKLVSTPSSNSN [MED1]
protein stability index (doa10∆): 1.44 ± 0.04 | protein stability index (pdr5∆): 1.67 ± 0.041 | protein stability index (san1∆): 1.5 ± 0.072 | protein stability index (ubr1∆): 1.36 ± 0.038

QQQQQNQQQQNQQPQQQ [SWI1]
protein stability index (doa10∆): 2.99 ± 0.041 | protein stability index (pdr5∆): 3.06 ± 0.043 | protein stability index (san1∆): 2.88 ± 0.032 | protein stability index (ubr1∆): 2.85 ± 0.038

IVACELILSGDTTANNG [YJL039C/NUP192]
protein stability index (doa10∆): 2.66 ± 0.067 | protein stability index (pdr5∆): 2.46 ± 0.068 | protein stability index (san1∆): 2 ± 0.077 | protein stability index (ubr1∆): 1.7 ± 0.032

LPKYQTIQYDPPETKLP [SNF5]
protein stability index (doa10∆): 3.03 ± 0.052 | protein stability index (pdr5∆): 2.96 ± 0.046 | protein stability index (san1∆): 2.92 ± 0.04 | protein stability index (ubr1∆): 3.01 ± 0.039

RIVNHKTKLWGFKWLNK [LIN1]
protein stability index (doa10∆): 2.87 ± 0.13 | protein stability index (pdr5∆): 3.1 ± 0.13 | protein stability index (san1∆): 2.87 ± 0.3 | protein stability index (ubr1∆): 2.88 ± 0.091

EKYAAAAPAATSAASGD [RPP0]
protein stability index (doa10∆): 2.47 ± 0.097 | protein stability index (pdr5∆): 2.15 ± 0.074 | protein stability index (san1∆): 1.88 ± 0.13 | protein stability index (ubr1∆): 2.78 ± 0.048

IVLSKAASALDEKEKQL [SIR4]
protein stability index (doa10∆): 3.35 ± 0.1 | protein stability index (pdr5∆): 3.03 ± 0.11 | protein stability index (san1∆): 3.04 ± 0.17 | protein stability index (ubr1∆): 3.57 ± 0.21

NKKIGKRPPEIMSTEAH [SIR4]
protein stability index (doa10∆): 3.09 ± 0.12 | protein stability index (pdr5∆): 3.27 ± 0.17 | protein stability index (san1∆): 3.04 ± 0.09 | protein stability index (ubr1∆): 3.22 ± 0.088

APTPAAPGASVPATAAP [SWI1]
protein stability index (doa10∆): 2.93 ± 0.068 | protein stability index (pdr5∆): 3.05 ± 0.054 | protein stability index (san1∆): 3.11 ± 0.042 | protein stability index (ubr1∆): 3.21 ± 0.05

TDLPIETAAMASLALAH [RPN1]
protein stability index (doa10∆): 1.5 ± 0.046 | protein stability index (pdr5∆): 1.66 ± 0.043 | protein stability index (san1∆): 1.58 ± 0.063 | protein stability index (ubr1∆): 1.43 ± 0.045

DSNYKWDLSVEDALYLG [PRE2]
protein stability index (doa10∆): 3.34 ± 0.085 | protein stability index (pdr5∆): 3.35 ± 0.082 | protein stability index (san1∆): 3.33 ± 0.07 | protein stability index (ubr1∆): 3.39 ± 0.049

NVEKPSSKPAFNLISNA [YLR335W/NUP2]
protein stability index (doa10∆): 3.1 ± 0.056 | protein stability index (pdr5∆): 3.15 ± 0.066 | protein stability index (san1∆): 3.14 ± 0.048 | protein stability index (ubr1∆): 3.16 ± 0.044

GGKIINKLGNDPSLNLK [BRR2]
protein stability index (doa10∆): 2.27 ± 0.059 | protein stability index (pdr5∆): 1.76 ± 0.073 | protein stability index (san1∆): 1.91 ± 0.072 | protein stability index (ubr1∆): 2.16 ± 0.057

IMECCQKNDTAAFKDIA [RRP40]
protein stability index (doa10∆): 3.08 ± 0.16 | protein stability index (pdr5∆): 3.54 ± 0.17 | protein stability index (san1∆): 2.95 ± 0.084 | protein stability index (ubr1∆): 3.54 ± 0.077

EAEVTAEVNGGDDEATE [BRR2]
protein stability index (pdr5∆): 3.24 ± 0.12 | protein stability index (ubr1∆): 2.72 ± 0.21

NRLSNPQKNLLLKGPAS [YOR098C/NUP1]
protein stability index (doa10∆): 2.96 ± 0.049 | protein stability index (pdr5∆): 3.05 ± 0.038 | protein stability index (san1∆): 2.68 ± 0.054 | protein stability index (ubr1∆): 2.94 ± 0.056

GKKVLNKNQLLKRNRIR [POP1]
protein stability index (doa10∆): 2.88 ± 0.068 | protein stability index (pdr5∆): 3.08 ± 0.055 | protein stability index (san1∆): 2.94 ± 0.064 | protein stability index (ubr1∆): 3.05 ± 0.053

IEMKDVSSKPSKPESSV [MED1]
protein stability index (doa10∆): 3.15 ± 0.12 | protein stability index (pdr5∆): 3.33 ± 0.11 | protein stability index (san1∆): 2.89 ± 0.076 | protein stability index (ubr1∆): 3.25 ± 0.064

KEKLTVQDCRYSLASVT [POP1]
protein stability index (doa10∆): 2.69 ± 0.039 | protein stability index (pdr5∆): 2.62 ± 0.043 | protein stability index (san1∆): 2.35 ± 0.043 | protein stability index (ubr1∆): 2.46 ± 0.035

AEEKREAVIDEKLEVIA [ITC1]
protein stability index (doa10∆): 3.04 ± 0.15 | protein stability index (pdr5∆): 2.62 ± 0.16 | protein stability index (san1∆): 3.03 ± 0.14 | protein stability index (ubr1∆): 3.13 ± 0.082
